Assays:
P2-4G-BGTSTIP = target: T1, P2-4G-BGTSTIP; test: SPR (Biacore 8K), HEV-p239 coupled to CM5 chip (Fig. 12)
T1 construct: also called PA-4G-BGTSTIP; VHH-BGTSTIP

[1] = target: P2-2C-RBD (insect cell expression system); test: SPR (Biacore 8K), HEV-p239 coupled to CM5 chip (Fig. 10A)
[2] = target: P1-1G-RBD (insect cell expression system); test: as above

Measured: binding result

B1: HEV-p239 protein (other)
chain: IALTLFNLADTLLGGLPTELISSAGGQLFYSRPVVSANGEPTVKLYTSVENAQQDKGIAIPHDIDLGESRVVIQDYDNQHEQDRPTPSPAPSRPFSVLRANDVLWLSLTAAEYDQSTYGSSTGPVYVSDSVTLVNVATGAQAVARSLDWTKVTLDGRPLSTIQQYSKTFFVLPLRGKLSFWEAGTTKAGYPYNYNTTASDQLLVENAAGHRVAISTYTTSLGAGPVSISAVAVLAPHSV
notes: also called HEV-p239 particles; HEV particles
binds: all assays above
